In US12077763B2, “RNA-based control of powdery mildew” (Greenlight Biosciences, Inc., priority 2021, dated 2024):

Tested on: E. necator
Experiment: Leaf disc assay, dry inoculum (settling tower), decrease in disease severity / hyphal growth (Example 2)
Details: decrease in disease severity (hyphal growth) relative to untreated control; time point 1 (untreated control hyphal growth ≥50%); value ± SE

Molecule | % decrease =/− SE TP1 [%]
GS3358 (nucleic acid) sense: UUGGUACUAUGGCCAGGGUCAAUUCAAUUCAAUUUUUUUCUAUCAAAUAAAAUUAAAUCAAAAUAGUUUUCAAUCCAAUCUAACCCAAUCUUAAUCUUAAAAUGUAACUUCAAACAUUGUGAUUCAAGUACUAAUCACACGAGAAACUAGCAACGUUUGAUCUCGCUUUUCGAUCUACUUUAGGUACUUGAUGAAAUUUUCAAAGAUAUUUUGUCAUAAAACCAGUCACUAAGCUUCUUUGCUAUAUAAUUGCACUACGCGACGUCAACAGAUGCUCUUUUCACACUCCUAGUUAUUAAAGCAAUUGAAACAUCUUCUAACUAUAUACAACUUGAAUAUAACUCCAGAUUUGAAUAUAUUCUCCACCAAAAUUUAAUUAGGUUUGCAAUAAAUU antisense: AAUUUAUUGCAAACCUAAUUAAAUUUUGGUGGAGAAUAUAUUCAAAUCUGGAGUUAUAUUCAAGUUGUAUAUAGUUAGAAGAUGUUUCAAUUGCUUUAAUAACUAGGAGUGUGAAAAGAGCAUCUGUUGACGUCGCGUAGUGCAAUUAUAUAGCAAAGAAGCUUAGUGACUGGUUUUAUGACAAAAUAUCUUUGAAAAUUUCAUCAAGUACCUAAAGUAGAUCGAAAAGCGAGAUCAAACGUUGCUAGUUUCUCGUGUGAUUAGUACUUGAAUCACAAUGUUUGAAGUUACAUUUUAAGAUUAAGAUUGGGUUAGAUUGGAUUGAAAACUAUUUUGAUUUAAUUUUAUUUGAUAGAAAAAAAUUGAAUUGAAUUGACCCUGGCCAUAGUACCAA | 6 ± 4
GS3359 (nucleic acid) sense: UUGAGAACAUGACCGAGGCUACUCUAAUCUUAGAUAUGUUUCUCAACAACGAGGGAGCCUUUAACUAUCCUCACAUUUCCUUUCGCAAAAAUUUCCACCCUUUCAACUUCUCUAAAAACAAUUGAUUUGCUUAGACCAUAAGAAUAUUUCAAUAUGAUUAAAACUGAAGCUAAUGGUGAAGGAUUUGAUAUUUCUAUUCCAGAGGUAUCAGUAACUGAGGAACGAAAGCCAUUUGUGCAAAAGGAAGGAUAUCUCAAAUUAAAGCAAGCAGGAACUGCAAGAGCGAAUGAAGCCGCUUCAUACGAAGCUCCACGUGGCACUGUAAAAGGAGAUUACGCAUACCGUCAUCGACAUCAGACAGUACUCCAACAGCAUAUAGCCUUUUUUGAUCAUGAUAA antisense: UUAUCAUGAUCAAAAAAGGCUAUAUGCUGUUGGAGUACUGUCUGAUGUCGAUGACGGUAUGCGUAAUCUCCUUUUACAGUGCCACGUGGAGCUUCGUAUGAAGCGGCUUCAUUCGCUCUUGCAGUUCCUGCUUGCUUUAAUUUGAGAUAUCCUUCCUUUUGCACAAAUGGCUUUCGUUCCUCAGUUACUGAUACCUCUGGAAUAGAAAUAUCAAAUCCUUCACCAUUAGCUUCAGUUUUAAUCAUAUUGAAAUAUUCUUAUGGUCUAAGCAAAUCAAUUGUUUUUAGAGAAGUUGAAAGGGUGGAAAUUUUUGCGAAAGGAAAUGUGAGGAUAGUUAAAGGCUCCCUCGUUGUUGAGAAACAUAUCUAAGAUUAGAGUAGCCUCGGUCAUGUUCUCAA | 14 ± 4
GS3352 (nucleic acid) sense: UGUAGAGGUGAAGUAGGUGAAAGUUGAUUUGGCGAUGGUAGAGAUGAGUUACUAUUACUGAUAGAAGGUAAAUUUGAGUAAGAUUGCAAAUUUCUAUCAGACGCAGCUGACUGAUCAAGAGUUUGCUCUAAUAAGGAUCUUUCAUGAGCUGAAUGCGCAUAUGUCGGUGACAAAUUUUUGGGAUGAUCGAUAAAGAAUUUUUUGGUUGAAUAGUUGCGAGAGAUUCCAGGUUGUAUUGCAGGUGAUGAAGAAGCUGGUGAAGAAAUGUUGCUUGAGUUGUCAAAAUUGCUACUGUUUGAACCAUUUGUUUUUGCGGAAGGAUACGGGAGUGGUUUACCUUCUUUUGCCAUCCGAAAAACUGGAAGUAAAUCCUCUCUAAGUCGUGUAUAUUCGAAUGU antisense: ACAUUCGAAUAUACACGACUUAGAGAGGAUUUACUUCCAGUUUUUCGGAUGGCAAAAGAAGGUAAACCACUCCCGUAUCCUUCCGCAAAAACAAAUGGUUCAAACAGUAGCAAUUUUGACAACUCAAGCAACAUUUCUUCACCAGCUUCUUCAUCACCUGCAAUACAACCUGGAAUCUCUCGCAACUAUUCAACCAAAAAAUUCUUUAUCGAUCAUCCCAAAAAUUUGUCACCGACAUAUGCGCAUUCAGCUCAUGAAAGAUCCUUAUUAGAGCAAACUCUUGAUCAGUCAGCUGCGUCUGAUAGAAAUUUGCAAUCUUACUCAAAUUUACCUUCUAUCAGUAAUAGUAACUCAUCUCUACCAUCGCCAAAUCAACUUUCACCUACUUCACCUCUACA | 6 ± 4
GS3351 (nucleic acid) sense: AAGAAACAGACAGAUGAUUUUAUCAUAUUUCAAGGUAUAUUUGAAUUUAGUGAAUCUAGUUUAAUAUAAUUUAAAUUUAUUCGAUUAUCACCAACCUAUGAAAAAAUCAUUUCAUCCCAAUUCCGACAUGAAUUUGUAGUGUCUGACAGGUUUGUUUAAAAACGAAGUGGUGUAAAGAACCAUCGAUUCUUUCCACUUAAAUAUCUCUCCUCUAAGGCUUUCUUAACCACUUUCUUGGCAUCCUCUCGCUGCGAUACUUCCUUGAAUGUUUCUGUAGAUAUUACGUUUUUAAGACCUUCUAAUUCGAGUGUGUAACGUGUUGGCAUAAUAUGAUUAUAAUUGAUAACUUUUAUAAAA antisense: UUUUAUAAAAGUUAUCAAUUAUAAUCAUAUUAUGCCAACACGUUACACACUCGAAUUAGAAGGUCUUAAAAACGUAAUAUCUACAGAAACAUUCAAGGAAGUAUCGCAGCGAGAGGAUGCCAAGAAAGUGGUUAAGAAAGCCUUAGAGGAGAGAUAUUUAAGUGGAAAGAAUCGAUGGUUCUUUACACCACUUCGUUUUUAAACAAACCUGUCAGACACUACAAAUUCAUGUCGGAAUUGGGAUGAAAUGAUUUUUUCAUAGGUUGGUGAUAAUCGAAUAAAUUUAAAUUAUAUUAAACUAGAUUCACUAAAUUCAAAUAUACCUUGAAAUAUGAUAAAAUCAUCUGUCUGUUUCUU | 4 ± 7
GS3347 (nucleic acid) sense: GUGAGUAUCAGGUGUAUAAAUAAAACGUAUAAAAAUGUGAUGUUAUAGAUCGACGGUCAAAGAUUUCUAGAGAUUGAGGUACUGGACAUUCCUUCUUCAACCCCUCAAGAAAUUGUUAAGUCGAAAGAUUAGUAAUUCUCAACUCUGAUUAAAAUAAUCGAUAUGUAUGAAGAUAAGCGAGAUGAAUUGAUAAUGUUGUCUAAAAUUUCGAAUUAUGAAUCUUUACAAAAGAGGGUGAGUUGUCGUAUGAUAAAAGGAGCCUGCUCCGAUCUAGAUAGAACACAGCAGGUAAAGUAGAAGUGAUAUCUGCGAGGAGCCUUGACACCAGCAAGGACUCAGUCCGAAGAGUACGAGUUGCUUUCUGGUUUGUUGAAUGAAAGAAGUAGAAAAAAAUAUAA antisense: UUAUAUUUUUUUCUACUUCUUUCAUUCAACAAACCAGAAAGCAACUCGUACUCUUCGGACUGAGUCCUUGCUGGUGUCAAGGCUCCUCGCAGAUAUCACUUCUACUUUACCUGCUGUGUUCUAUCUAGAUCGGAGCAGGCUCCUUUUAUCAUACGACAACUCACCCUCUUUUGUAAAGAUUCAUAAUUCGAAAUUUUAGACAACAUUAUCAAUUCAUCUCGCUUAUCUUCAUACAUAUCGAUUAUUUUAAUCAGAGUUGAGAAUUACUAAUCUUUCGACUUAACAAUUUCUUGAGGGGUUGAAGAAGGAAUGUCCAGUACCUCAAUCUCUAGAAAUCUUUGACCGUCGAUCUAUAACAUCACAUUUUUAUACGUUUUAUUUAUACACCUGAUACUCAC | 2 ± 7
GS3356 (nucleic acid) sense: CUGGGUGAGUUUUUCGUAACGUCGCUACUUUAUUAACUUGAUCUGCCGUGGAUUUUGGUUGUCUUGUAUCAAUCAAAAGGAGAGGAAGCUUCGGAAACUUCAUUAAAGAUCUUAUGAUUGGCUCCUUUGAAUAGUCGGGCCUCUGAAAUAUAACAGCUUUUCCUUGGGAGGCAACAGUGUUAUCUACUCCUGAAGGGUUUCCAUGGAUACAUAUUUCUCCUACAUAAGCCCACAUAUUAAUGCGGCUUAUUUGGGUAUGUGCUUCUUCAAUGGGUUGGUCCUCAUGAGGCCCAGAAAGCGCUCUUACCUGUAAUAAGAGCGCAGCAGCUAGACACACAGUAAUAGAUGCA antisense: UGCAUCUAUUACUGUGUGUCUAGCUGCUGCGCUCUUAUUACAGGUAAGAGCGCUUUCUGGGCCUCAUGAGGACCAACCCAUUGAAGAAGCACAUACCCAAAUAAGCCGCAUUAAUAUGUGGGCUUAUGUAGGAGAAAUAUGUAUCCAUGGAAACCCUUCAGGAGUAGAUAACACUGUUGCCUCCCAAGGAAAAGCUGUUAUAUUUCAGAGGCCCGACUAUUCAAAGGAGCCAAUCAUAAGAUCUUUAAUGAAGUUUCCGAAGCUUCCUCUCCUUUUGAUUGAUACAAGACAACCAAAAUCCACGGCAGAUCAAGUUAAUAAAGUAGCGACGUUACGAAAAACUCACCCAG | 5 ± 5
GS3357 (nucleic acid) sense: GAUCUGGUCGUGGUUUGCCGAAAAGAUUCUUCAUUCCUCCCGUUAUAAGAACGGUGAGUGAUAGUGAAAAGCUUAAUCCAAGCAAUCCAACGUGUAAUUCCCACAUUCUCCGAUGCCAUAUGGCAGAUCUAGGCGUUGACUUUGUAACCGUCGGUCCAGGAACAAGAACUAAGCAAAUAGCAAAAAUAACUAAUGCCGGAAUUAUAAAAGCAUAUAAUCCAAGCCAUCGUACCGAGACUUUUUCAUGUGUUUUAUAGGGAAAGCUGAUAUCUGGGUUCUCCAGCGAGAAGGGUCUUUUGUUUGGUACCCUCGAUCCAACAAAUAAUCCAAAAAAUGCACCAAAUAUAACUACCAGCCAAUCGACAACAUAUGAAAGUACUAGUUUUAAUGA antisense: UCAUUAAAACUAGUACUUUCAUAUGUUGUCGAUUGGCUGGUAGUUAUAUUUGGUGCAUUUUUUGGAUUAUUUGUUGGAUCGAGGGUACCAAACAAAAGACCCUUCUCGCUGGAGAACCCAGAUAUCAGCUUUCCCUAUAAAACACAUGAAAAAGUCUCGGUACGAUGGCUUGGAUUAUAUGCUUUUAUAAUUCCGGCAUUAGUUAUUUUUGCUAUUUGCUUAGUUCUUGUUCCUGGACCGACGGUUACAAAGUCAACGCCUAGAUCUGCCAUAUGGCAUCGGAGAAUGUGGGAAUUACACGUUGGAUUGCUUGGAUUAAGCUUUUCACUAUCACUCACCGUUCUUAUAACGGGAGGAAUGAAGAAUCUUUUCGGCAAACCACGACCAGAUC | 9 ± 6

Same assay, conditions: decrease in disease severity (hyphal growth) relative to untreated control; time point 2; value ± SE

Molecule | % decrease =/− SE TP2 [%]
GS3357 (nucleic acid) sense: GAUCUGGUCGUGGUUUGCCGAAAAGAUUCUUCAUUCCUCCCGUUAUAAGAACGGUGAGUGAUAGUGAAAAGCUUAAUCCAAGCAAUCCAACGUGUAAUUCCCACAUUCUCCGAUGCCAUAUGGCAGAUCUAGGCGUUGACUUUGUAACCGUCGGUCCAGGAACAAGAACUAAGCAAAUAGCAAAAAUAACUAAUGCCGGAAUUAUAAAAGCAUAUAAUCCAAGCCAUCGUACCGAGACUUUUUCAUGUGUUUUAUAGGGAAAGCUGAUAUCUGGGUUCUCCAGCGAGAAGGGUCUUUUGUUUGGUACCCUCGAUCCAACAAAUAAUCCAAAAAAUGCACCAAAUAUAACUACCAGCCAAUCGACAACAUAUGAAAGUACUAGUUUUAAUGA antisense: UCAUUAAAACUAGUACUUUCAUAUGUUGUCGAUUGGCUGGUAGUUAUAUUUGGUGCAUUUUUUGGAUUAUUUGUUGGAUCGAGGGUACCAAACAAAAGACCCUUCUCGCUGGAGAACCCAGAUAUCAGCUUUCCCUAUAAAACACAUGAAAAAGUCUCGGUACGAUGGCUUGGAUUAUAUGCUUUUAUAAUUCCGGCAUUAGUUAUUUUUGCUAUUUGCUUAGUUCUUGUUCCUGGACCGACGGUUACAAAGUCAACGCCUAGAUCUGCCAUAUGGCAUCGGAGAAUGUGGGAAUUACACGUUGGAUUGCUUGGAUUAAGCUUUUCACUAUCACUCACCGUUCUUAUAACGGGAGGAAUGAAGAAUCUUUUCGGCAAACCACGACCAGAUC | 7 ± 6
